This passage reports Kd results from patent US20230295275A1 (FLAGSHIP PIONEERING INNOVATIONS VI, published 2023).

Sequences and labels used below:
B1: AB-1 full-length IgG1 (antibody, V domains shown)
VH: QMQLVQSGTEVKKPGESLKISCKGSGYGFITVWIGWVRQMPGKGLEWMGIIYPGDSETRYSPSFQGQVTISADKSINTAYLQWSSLKASDTAIYYCAGGSGISTPMDVWGQGTTVTVSS
VL: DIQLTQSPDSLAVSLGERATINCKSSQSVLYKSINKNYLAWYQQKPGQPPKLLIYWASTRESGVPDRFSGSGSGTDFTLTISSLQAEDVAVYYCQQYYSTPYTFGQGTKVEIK
B2: AB-2 full-length IgG1 (antibody, V domains shown)
VH: B1 VH with Y27S, F29T
VL: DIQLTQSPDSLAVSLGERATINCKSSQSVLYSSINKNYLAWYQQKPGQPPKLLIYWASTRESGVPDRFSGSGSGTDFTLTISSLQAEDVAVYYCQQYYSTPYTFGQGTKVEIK
B3: AB-3 full-length IgG1 (antibody, V domains shown)
VH: B1 VH with Y27S
VL: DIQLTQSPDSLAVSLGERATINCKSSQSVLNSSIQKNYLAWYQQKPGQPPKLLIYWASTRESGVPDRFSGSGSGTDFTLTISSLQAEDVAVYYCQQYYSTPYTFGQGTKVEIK
B4: AB-4 full-length IgG1 (antibody, V domains shown)
VH: B1 VH with Y27S, V32Y, S103H
VL: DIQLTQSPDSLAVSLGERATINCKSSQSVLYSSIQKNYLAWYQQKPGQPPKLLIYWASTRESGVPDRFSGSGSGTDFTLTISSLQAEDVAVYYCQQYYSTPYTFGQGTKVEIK

Numbering of substitutions follows the chain as printed.

The first test has as its target D614 SARS-CoV-2 spike (SARS-CoV-2, UniProt P0DTC2 14-1208).
As for B1, the Kd – broadly, the concentration at which binding is half-saturated – was determined as 1.66 nM.

On to B2, for which binding was put at a Kd of 1.48 nM.

B3 gave a Kd of 0.907 nM.

As to B4, binding was put at a Kd of 1.72 nM.

The next test addresses soluble G614 HexaPro spike ectodomain (SARS-CoV-2, UniProt P0DTC2 14-1208).
Consider B1, for which the Kd was 3.39 nM.

As to B2, the equilibrium dissociation constant (Kd) is 2.79 nM.

The molecule B3 came in with an equilibrium dissociation constant (Kd) of 1.74 nM.

As for B4, the dissociation constant (Kd) is 2.71 nM. This Kd is about 1.6-fold higher than that of the molecule before.
